We go through three sequences from the supplement of paper PMC6379048.

Experiment in all cases: EC50 of free RNA motif oligo competing protein binding to immobilised probe
Data set [1] has as its target T1, CPSF7 (UniProt Q8N684).
T1 sequence: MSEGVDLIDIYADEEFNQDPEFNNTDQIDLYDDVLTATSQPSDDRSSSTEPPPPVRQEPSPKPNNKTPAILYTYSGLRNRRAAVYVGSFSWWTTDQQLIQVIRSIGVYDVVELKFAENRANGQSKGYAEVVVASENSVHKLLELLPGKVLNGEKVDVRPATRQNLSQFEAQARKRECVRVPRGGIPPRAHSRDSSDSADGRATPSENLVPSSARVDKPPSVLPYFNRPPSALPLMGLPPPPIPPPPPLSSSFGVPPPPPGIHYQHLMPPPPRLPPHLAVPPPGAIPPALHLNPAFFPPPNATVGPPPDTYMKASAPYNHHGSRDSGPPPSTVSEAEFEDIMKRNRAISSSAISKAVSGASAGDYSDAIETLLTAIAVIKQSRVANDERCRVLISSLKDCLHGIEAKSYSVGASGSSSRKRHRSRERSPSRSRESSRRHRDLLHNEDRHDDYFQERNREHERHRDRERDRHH
In short, it runs like this: (§1)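 Kd was calculated as EC50, taken from a four-parameter log-logistic fit, multiplied by a protein-dependent depletion factor. The assay used HEK293-FT lysate (2.5 mg protein/well) pre-incubated for 1 h at 4°C with free RNA oligos (0 nM to 30 μM), then incubated for 30 min at 4°C with the matching oligos bound through a 5′-amino-C6 linker to NHS-Sepharose beads. Bound proteins were measured by label-free LC-MS/MS and normalised to the control.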

Data set [2] addresses CXorf57 (UniProt Q6NSI4). Put shortly:
as §1

For data set [3], the target named is SRRM2 (UniProt Q9UQ35). Put shortly:
as §1

For data set [4], the target named is T2, ANGEL2 (UniProt Q5VTE6).
T2 sequence: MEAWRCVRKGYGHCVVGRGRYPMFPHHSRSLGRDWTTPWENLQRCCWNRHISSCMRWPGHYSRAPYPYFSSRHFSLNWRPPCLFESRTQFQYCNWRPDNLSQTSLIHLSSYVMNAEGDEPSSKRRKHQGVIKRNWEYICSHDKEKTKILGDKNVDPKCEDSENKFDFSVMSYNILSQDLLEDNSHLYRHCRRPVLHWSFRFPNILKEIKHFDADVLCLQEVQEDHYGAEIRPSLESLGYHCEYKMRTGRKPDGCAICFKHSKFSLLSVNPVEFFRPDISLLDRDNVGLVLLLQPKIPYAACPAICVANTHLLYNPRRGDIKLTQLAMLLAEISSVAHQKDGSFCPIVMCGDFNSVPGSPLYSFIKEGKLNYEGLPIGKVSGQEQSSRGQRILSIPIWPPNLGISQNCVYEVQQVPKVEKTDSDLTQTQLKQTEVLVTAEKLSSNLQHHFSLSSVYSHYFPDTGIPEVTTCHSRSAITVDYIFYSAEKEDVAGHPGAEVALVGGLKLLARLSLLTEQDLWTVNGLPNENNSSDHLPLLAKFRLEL
Put shortly:
as §1

The target of data set [5] is T3, DDX21 (UniProt Q9NR30).
T3 sequence: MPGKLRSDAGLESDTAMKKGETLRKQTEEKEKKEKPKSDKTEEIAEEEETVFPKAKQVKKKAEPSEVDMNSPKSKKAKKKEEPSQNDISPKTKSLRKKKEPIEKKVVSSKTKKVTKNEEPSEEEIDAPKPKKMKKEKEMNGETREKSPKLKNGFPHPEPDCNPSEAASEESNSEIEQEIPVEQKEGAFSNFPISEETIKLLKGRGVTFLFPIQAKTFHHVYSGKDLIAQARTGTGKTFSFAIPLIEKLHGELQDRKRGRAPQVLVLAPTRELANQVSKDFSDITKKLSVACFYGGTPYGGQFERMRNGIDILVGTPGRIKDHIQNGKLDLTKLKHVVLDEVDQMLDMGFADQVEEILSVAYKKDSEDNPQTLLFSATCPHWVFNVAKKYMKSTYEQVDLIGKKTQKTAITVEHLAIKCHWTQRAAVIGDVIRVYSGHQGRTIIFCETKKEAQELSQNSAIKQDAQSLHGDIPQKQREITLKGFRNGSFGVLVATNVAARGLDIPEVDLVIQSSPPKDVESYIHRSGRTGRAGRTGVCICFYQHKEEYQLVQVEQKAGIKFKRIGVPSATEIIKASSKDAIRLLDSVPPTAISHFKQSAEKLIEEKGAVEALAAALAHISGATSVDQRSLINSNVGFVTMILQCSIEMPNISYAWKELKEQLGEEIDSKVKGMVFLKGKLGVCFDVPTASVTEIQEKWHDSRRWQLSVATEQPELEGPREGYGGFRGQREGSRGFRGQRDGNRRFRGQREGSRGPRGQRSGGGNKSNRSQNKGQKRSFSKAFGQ
Put shortly: as §1

For data set [6], the target named is GNB2L1 (UniProt P63244). Put shortly:
as §1

The target of data set [7] is HNRNPK (UniProt P61978). Put shortly: as §1
Data set [8] addresses MRPL1 (UniProt Q9BYD6). Put shortly: as §1
Data set [9] deals with MRPL13 (UniProt Q9BYD1). Put shortly:
as §1

The target of data set [10] is MRPL22 (UniProt Q9NWU5). In short, it runs like this:
as §1

Data set [11] concerns the target RPS10 (UniProt P46783). In short, it runs like this: as §1
The target of data set [12] is MRPS28 (UniProt Q9Y2Q9). In short, it runs like this:
as §1

SRRM2, sequence (Q9UQ35 whole entry): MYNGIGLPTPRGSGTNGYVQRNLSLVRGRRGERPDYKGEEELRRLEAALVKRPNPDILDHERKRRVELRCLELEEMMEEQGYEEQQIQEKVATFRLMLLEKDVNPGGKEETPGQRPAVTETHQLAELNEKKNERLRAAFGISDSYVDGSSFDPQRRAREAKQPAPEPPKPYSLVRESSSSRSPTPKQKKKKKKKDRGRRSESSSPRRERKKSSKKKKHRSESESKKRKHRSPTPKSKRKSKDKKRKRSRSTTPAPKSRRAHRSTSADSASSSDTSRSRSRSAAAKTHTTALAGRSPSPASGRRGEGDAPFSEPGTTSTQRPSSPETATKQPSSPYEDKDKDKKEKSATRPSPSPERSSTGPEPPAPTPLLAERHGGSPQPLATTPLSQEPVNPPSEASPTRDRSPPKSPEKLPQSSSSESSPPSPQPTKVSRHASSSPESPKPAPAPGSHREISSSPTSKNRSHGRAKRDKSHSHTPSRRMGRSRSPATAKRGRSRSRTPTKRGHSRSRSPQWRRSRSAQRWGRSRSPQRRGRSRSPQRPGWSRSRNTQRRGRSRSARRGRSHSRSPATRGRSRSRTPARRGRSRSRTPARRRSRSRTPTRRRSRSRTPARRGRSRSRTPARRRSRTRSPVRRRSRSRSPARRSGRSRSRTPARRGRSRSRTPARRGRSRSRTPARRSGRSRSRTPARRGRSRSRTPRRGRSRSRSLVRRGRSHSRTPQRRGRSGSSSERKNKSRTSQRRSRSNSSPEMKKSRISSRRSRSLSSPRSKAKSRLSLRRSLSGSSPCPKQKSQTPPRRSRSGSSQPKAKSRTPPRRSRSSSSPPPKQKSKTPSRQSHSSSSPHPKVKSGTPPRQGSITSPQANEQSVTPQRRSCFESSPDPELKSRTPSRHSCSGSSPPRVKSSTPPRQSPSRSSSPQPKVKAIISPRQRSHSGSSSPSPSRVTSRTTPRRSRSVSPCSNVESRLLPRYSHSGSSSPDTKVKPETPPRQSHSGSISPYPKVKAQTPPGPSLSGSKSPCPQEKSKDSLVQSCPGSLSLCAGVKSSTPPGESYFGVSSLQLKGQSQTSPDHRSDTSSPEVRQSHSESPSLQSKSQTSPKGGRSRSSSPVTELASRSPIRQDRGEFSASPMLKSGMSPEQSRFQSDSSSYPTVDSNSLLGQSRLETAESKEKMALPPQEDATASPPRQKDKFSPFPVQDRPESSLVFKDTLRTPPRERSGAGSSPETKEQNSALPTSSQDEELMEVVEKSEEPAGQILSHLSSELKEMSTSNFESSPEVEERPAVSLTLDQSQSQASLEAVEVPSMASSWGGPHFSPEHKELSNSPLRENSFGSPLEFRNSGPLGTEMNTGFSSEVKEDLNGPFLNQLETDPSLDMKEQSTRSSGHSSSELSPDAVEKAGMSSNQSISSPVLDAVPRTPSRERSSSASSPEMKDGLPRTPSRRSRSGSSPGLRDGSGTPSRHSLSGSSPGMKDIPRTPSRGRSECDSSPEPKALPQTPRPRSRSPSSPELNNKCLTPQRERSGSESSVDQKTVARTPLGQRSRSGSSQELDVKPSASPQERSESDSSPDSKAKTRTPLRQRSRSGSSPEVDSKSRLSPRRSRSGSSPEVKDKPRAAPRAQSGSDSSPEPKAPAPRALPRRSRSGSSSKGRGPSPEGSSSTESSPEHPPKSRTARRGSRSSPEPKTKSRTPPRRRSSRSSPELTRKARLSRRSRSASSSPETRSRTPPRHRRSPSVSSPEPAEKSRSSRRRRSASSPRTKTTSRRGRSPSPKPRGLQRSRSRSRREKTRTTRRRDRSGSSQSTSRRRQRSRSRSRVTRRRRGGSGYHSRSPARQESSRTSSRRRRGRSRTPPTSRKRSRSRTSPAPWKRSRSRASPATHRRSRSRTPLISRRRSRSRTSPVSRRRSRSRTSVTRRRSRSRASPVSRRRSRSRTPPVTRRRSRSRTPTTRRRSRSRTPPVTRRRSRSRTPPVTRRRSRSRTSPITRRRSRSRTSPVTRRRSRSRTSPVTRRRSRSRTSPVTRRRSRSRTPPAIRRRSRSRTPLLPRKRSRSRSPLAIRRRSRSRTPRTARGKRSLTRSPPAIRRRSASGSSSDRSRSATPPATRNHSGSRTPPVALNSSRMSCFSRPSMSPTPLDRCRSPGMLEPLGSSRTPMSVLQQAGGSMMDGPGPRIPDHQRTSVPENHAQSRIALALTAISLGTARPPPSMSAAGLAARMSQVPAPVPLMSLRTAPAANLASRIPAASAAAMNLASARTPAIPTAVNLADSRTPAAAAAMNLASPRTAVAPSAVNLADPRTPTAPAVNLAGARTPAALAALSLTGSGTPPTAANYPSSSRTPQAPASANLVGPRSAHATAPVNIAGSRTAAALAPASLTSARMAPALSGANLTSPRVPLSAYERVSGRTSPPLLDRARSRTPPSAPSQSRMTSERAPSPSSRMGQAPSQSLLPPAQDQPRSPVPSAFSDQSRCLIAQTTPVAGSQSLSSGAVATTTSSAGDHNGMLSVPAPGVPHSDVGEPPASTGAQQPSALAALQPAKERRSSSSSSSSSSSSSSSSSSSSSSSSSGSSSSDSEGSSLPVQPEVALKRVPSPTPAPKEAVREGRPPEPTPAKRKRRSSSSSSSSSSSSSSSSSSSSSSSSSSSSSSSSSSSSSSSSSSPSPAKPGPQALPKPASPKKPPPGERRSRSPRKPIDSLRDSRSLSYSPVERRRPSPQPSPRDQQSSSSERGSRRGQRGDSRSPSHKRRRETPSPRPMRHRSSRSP
CXorf57, sequence (Q6NSI4 whole entry): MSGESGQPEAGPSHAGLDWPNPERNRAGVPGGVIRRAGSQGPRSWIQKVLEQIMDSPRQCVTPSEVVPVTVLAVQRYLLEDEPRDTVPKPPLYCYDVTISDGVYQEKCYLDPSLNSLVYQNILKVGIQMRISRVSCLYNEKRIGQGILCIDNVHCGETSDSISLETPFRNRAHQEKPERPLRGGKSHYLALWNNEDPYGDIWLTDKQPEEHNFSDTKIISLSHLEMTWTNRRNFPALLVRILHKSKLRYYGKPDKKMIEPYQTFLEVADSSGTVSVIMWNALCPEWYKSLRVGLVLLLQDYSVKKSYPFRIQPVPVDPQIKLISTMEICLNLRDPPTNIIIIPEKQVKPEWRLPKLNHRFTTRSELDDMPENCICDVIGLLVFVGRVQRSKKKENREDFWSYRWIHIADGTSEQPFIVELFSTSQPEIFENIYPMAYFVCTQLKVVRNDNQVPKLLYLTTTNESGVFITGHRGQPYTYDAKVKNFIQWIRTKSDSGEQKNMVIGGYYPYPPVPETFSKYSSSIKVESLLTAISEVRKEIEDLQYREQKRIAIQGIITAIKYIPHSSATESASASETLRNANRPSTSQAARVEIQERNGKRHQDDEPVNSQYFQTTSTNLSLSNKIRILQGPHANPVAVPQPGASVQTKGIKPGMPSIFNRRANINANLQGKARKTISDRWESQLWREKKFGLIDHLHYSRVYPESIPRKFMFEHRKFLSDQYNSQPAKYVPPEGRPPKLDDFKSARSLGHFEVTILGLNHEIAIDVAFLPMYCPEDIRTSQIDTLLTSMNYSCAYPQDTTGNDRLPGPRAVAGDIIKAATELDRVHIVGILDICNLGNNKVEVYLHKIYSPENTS

For orientation: EC50 means the midpoint of the concentration-response curve. Regarding AAUAAA, the EC50 in data set [1] worked out at 8820 nM; in [2], 3560 nM; in data set [3], 1040 nM.
With CUGUCCU, the 50% effective concentration (EC50) in [4] was determined as 504 nM; in [5], 116 nM; in data set [6], 2980 nM; in data set [7], 3040 nM; in data set [8] it was 259 nM; in [9], 194 nM. Also, the EC50 came out at 98.4 nM in data set [10] and 226 nM in data set [11].
In turn, UAUUUAU showed an EC50 in data set [12] of 56.1 nM.
